Assay [1] deals with Abeta1-42. As to the kind of experiment: intracellular flow cytometry of THP-1 cells, isotype control stain (background level). On the technique in general: In flow cytometry, cells or beads pass a laser one at a time.
In assay [2] the target is Abeta1-42. The experiment in a line: intracellular flow cytometry of monocytes/macrophages from patient and control, isotype control stain (background level).

This note sets out measurements from patent publication US20140051084A1.

Sequence of Abeta1-42 (peptide, as listed by the source): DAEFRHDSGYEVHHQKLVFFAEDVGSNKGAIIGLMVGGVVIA

As to “isotype control antibodies (Mouse IgG1 and IgG2b) (antibody)”, the median Abeta FITC-A signal in the assay with Abeta1-42 [1] and with Abeta1-42 [2] was 102 each time.
